Molecular target: the molecule itself
Assay: cross-linking

B1: GM130 N122-oDi-his (other)
chain: MWPPRFPPPRPGMSEETRQSKLAAAKKKLREYQQKNSPGVPAGAKKKKKIKNGHSPERTSASDCQSAENVPTDHTAPAPPSTAAATMFLGVVPSPDADLIQSHDAGNCSNLMEETKTFSSTEGEIAALKQEIAALKKENAALKFEIAALKQG
In the case of B1, the “stoichiometry N” value is reported as 2.

B2: GM130 N122-oTet-his (other)
chain: MWPPRFPPPRPGMSEETRQSKLAAAKKKLREYQQKNSPGVPAGAKKKKKIKNGHSPERTSASDCQSAENVPTDHTAPAPPSTAAATMFLGVVPSPDADLIQSHDAGNCSNLMEETKTFSSTEGELAAIKQELAAIKKELAAIKWELAAIKQG
For B2, the “stoichiometry N” value was 4.

From paper doi:10.1101/2023.03.02.530905 (bioRxiv, 2023)
